Laboratory results from publication PMC4134230.

Key:
[1] = test system: Tau (hTau42, longest isoform, unphosphorylated) (Homo sapiens); test: SPR (kinetic); conditions: average of six determinations, 18-22 C; Kd given as 0.04 uM; immobilized on polylysine-heparin-polylysine gold surface; 10 mM Hepes, 0.1 M NaCl, pH 7; SPR at 13-33 C, DNA immobilized on polylysine-heparin-polylysine gold surface
[2] = test system: Tau (hTau42, longest isoform, unphosphorylated) (Homo sapiens); test: SPR (equilibrium saturation); conditions: immobilized on polylysine-heparin-polylysine gold surface; 10 mM Hepes, 0.1 M NaCl, pH 7; SPR at 13-33 C, DNA immobilized on polylysine-heparin-polylysine gold surface

Q: Which results are given for “calf thymus DNA (activated type XV, Sigma)”?
A: Ka [1]: 2.4 10^7 M^-1; Ka [2]: 2.3 10^7 M^-1
